# Target: human neonatal Fc-receptor (FcRn) (human) (UniProt P55899)
# Test: FcRn affinity chromatography, bispecific KiH antibody
# Sequence of human neonatal Fc-receptor (FcRn) (human) (P55899 24-297 limits assumed, chain 1 of 2): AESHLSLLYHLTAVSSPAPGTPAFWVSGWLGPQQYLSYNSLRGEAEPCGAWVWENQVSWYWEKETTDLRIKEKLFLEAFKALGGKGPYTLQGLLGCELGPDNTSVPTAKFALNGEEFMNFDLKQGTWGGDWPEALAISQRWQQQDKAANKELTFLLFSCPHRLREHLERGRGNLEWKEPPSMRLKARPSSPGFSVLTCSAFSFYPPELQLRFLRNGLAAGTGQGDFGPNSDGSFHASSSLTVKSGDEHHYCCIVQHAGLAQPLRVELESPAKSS
# Sequence of human neonatal Fc-receptor (FcRn) (human) (P61769 21-119 limits assumed, chain 2 of 2, further chain): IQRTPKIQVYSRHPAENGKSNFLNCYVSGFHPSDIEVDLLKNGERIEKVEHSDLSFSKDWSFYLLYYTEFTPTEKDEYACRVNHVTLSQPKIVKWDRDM
row,Substance,retention time on FcRn affinity column
1,"bispecific antibody (knobs-into-holes), one chain with M252Y/S254T/T256E",56.2 min
2,"bispecific antibody (knobs-into-holes), one chain with I253A",48.8 min
3,"bispecific antibody (knobs-into-holes), one chain with H435A",48.8 min
4,"bispecific antibody (knobs-into-holes), one chain with H310A/H433A/Y436A",46.7 min
5,"bispecific antibody (knobs-into-holes), one chain with H310A",48.4 min
6,"bispecific antibody (knobs-into-holes), one chain with L251D/L314D/L432D",46.3 min

# Target: human neonatal Fc-receptor (FcRn) (human) (UniProt P55899)
# Test: FcRn affinity chromatography
Substance,RT (Min) on FcRn affinity column,FcRn-affinity column retention time
"bispecific antibody (knobs-into-holes), first chain with I253A/H310A/H435A and second chain with I253A/H310A/H435A",0 min,
"bispecific antibody (knobs-into-holes), first chain with I253A/H310A/H435A and second chain with H310A",0 min,
"bispecific antibody (knobs-into-holes), first chain with I253A/H310A/H435A and second chain with H435A",0 min,
IgG1 Fc-region molecule with L234A/L235A/P329G and symmetric Y436A,,41.3 min
